Positions count from the first letter of the chain named. Names and notes keep the numbering of the source.
T1: human FcγRIIa type R (human, UniProt P12318 36-217)
T1 construct: also called FcgRIIaR; FcγRIIa(R)
T1 chain: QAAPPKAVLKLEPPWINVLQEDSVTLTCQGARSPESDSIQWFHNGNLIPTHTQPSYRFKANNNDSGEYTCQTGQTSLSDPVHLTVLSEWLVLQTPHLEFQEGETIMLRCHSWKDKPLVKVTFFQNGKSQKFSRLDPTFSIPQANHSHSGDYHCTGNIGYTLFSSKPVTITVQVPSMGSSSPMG

T2: human FcγRIIb (human, UniProt P31994 43-217, limits assumed)
T2 construct: also called FcgRIIb; FcγIIB
T2 sequence: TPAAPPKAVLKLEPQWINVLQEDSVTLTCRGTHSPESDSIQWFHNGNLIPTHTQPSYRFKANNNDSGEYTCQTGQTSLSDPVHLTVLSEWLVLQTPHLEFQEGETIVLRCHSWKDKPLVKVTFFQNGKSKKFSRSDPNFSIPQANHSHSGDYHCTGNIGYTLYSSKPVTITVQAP

T3: human FcγRIIa type H (human, UniProt P12318 36-217)
T3 construct: also called FcgRIIaH; FcγRIIa(H)
T3 sequence: T1 chain with R133H

B1: IL6R-BP082/IL6R-L (antibody, human IgG1, name in EU numbering)
heavy: QVQLQESGPGLVKPSETLSLTCAVSGHSISHDHAWSWVRQPPGEGLEWIGFISYSGITNYNPSLQGRVTISRDNSKNTLYLQMNSLRAEDTAVYYCARSLARTTAMDYWGEGTLVTVSSASTKGPSVFPLAPSSKSTSGGTAALGCLVKDYFPEPVTVSWNSGALTSGVHTFPAVLQSSGLYSLSSVVTVPSSSLGTQTYICNVNHKPSNTKVDKKVEPKSCDKTHTCPPCPAPDLLGGDSVFLFPPKPKDTLMISRTPEVTCVVVDVSHEDPEVKFNWYVDGVEVHNAKTKPREEQYNSTYRVVSVLTVLHQDWLNGKEYKCKVSNKALPKPIEKTISKAKGQPREPQVYTLPPSRDELTKNQVSLTCLVKGFYPSDIAVEWESNGQPENNYKTTPPVLDSDGSFFLYSKLTVDKSRWQQGNVFSCSVMHEALHNHYTQESLSLSP
light: DIQMTQSPSSLSASVGDRVTITCRASQDISSYLNWYQQKPGKAPKLLIYYTSRLHSGVPSRFSGSGSGTDFTFTISSLQPEDIATYYCQQGNTLPYTFGQGTKVEIK
notes: copies: 2 + 2
B2: IL6R-BP084/IL6R-L (antibody, human IgG1, name in EU numbering)
heavy: B1 heavy with D235E, V325M
light: B1 light
notes: copies: 2 + 2
B3: IL6R-BF648/IL6R-L (antibody, human IgG1, name in EU numbering)
heavy: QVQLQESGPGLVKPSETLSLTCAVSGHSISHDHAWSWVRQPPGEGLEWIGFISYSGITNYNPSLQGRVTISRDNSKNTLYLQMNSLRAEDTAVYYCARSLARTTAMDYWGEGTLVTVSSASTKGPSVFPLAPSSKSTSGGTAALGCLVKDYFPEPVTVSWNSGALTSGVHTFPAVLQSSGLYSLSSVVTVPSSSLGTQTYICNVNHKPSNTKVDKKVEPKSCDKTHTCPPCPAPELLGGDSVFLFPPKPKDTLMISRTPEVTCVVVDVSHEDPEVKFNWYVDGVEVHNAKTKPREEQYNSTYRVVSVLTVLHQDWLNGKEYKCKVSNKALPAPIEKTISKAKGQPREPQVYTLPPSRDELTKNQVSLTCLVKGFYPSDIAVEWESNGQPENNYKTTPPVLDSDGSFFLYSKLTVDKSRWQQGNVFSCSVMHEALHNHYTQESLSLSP
light: B1 light
notes: copies: 2 + 2
B4: IL6R-BP132/IL6R-L (antibody, human IgG1, name in EU numbering)
heavy: B1 heavy with K328A
light: B1 light
notes: copies: 2 + 2
B5: IL6R-2B261/IL6R-L (antibody, human IgG1, name in EU numbering)
heavy: B1 heavy with Y298D, K332A
light: B1 light
notes: copies: 2 + 2
B6: IL6R-BP083/IL6R-L (antibody, human IgG1, name in EU numbering)
heavy: B1 heavy with D235E, Y298D
light: B1 light
notes: copies: 2 + 2
B7: IL6R-B3/IL6R-L (antibody, human IgG1)
heavy: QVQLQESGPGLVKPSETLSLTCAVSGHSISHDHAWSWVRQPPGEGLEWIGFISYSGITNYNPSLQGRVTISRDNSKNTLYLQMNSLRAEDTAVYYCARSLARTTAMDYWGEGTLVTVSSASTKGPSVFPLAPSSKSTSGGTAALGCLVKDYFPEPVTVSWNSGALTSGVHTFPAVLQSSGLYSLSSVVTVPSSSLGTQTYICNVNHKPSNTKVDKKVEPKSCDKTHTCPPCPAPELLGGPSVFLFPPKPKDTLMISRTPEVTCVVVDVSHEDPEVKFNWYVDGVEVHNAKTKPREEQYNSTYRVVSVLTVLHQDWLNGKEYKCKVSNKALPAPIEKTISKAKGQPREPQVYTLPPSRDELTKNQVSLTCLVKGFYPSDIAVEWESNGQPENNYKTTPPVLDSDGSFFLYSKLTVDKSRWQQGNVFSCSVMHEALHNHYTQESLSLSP
light: B1 light
notes: IL6R-G1d with K439E (EU numbering); parent polypeptide of the variants; copies: 2 + 2
B8: IL6R-2B253/IL6R-L (antibody, human IgG1, name in EU numbering)
heavy: B1 heavy with V325M, K332A
light: B1 light
notes: copies: 2 + 2

Target: T1, human FcγRIIa type R
Test: SPR (Biacore), FcγR over captured antibody; binding amount divided by that of IL6R-BF648/IL6R-L x 100
Method: (§1) According to the following method, relative binding activities were calculated for the results of analyzing interactions with the respective FcγRs.
For B1, the relative binding activity was 126 relative (IL6R-BF648/IL6R-L = 100). In the case of B2, the relative binding activity is reported as 203 relative (IL6R-BF648/IL6R-L = 100). With B3 the relative binding activity was 100 relative (IL6R-BF648/IL6R-L = 100). B4 was tested, and the relative binding activity was 191 relative (IL6R-BF648/IL6R-L = 100). For B5, the relative binding activity was 94 relative (IL6R-BF648/IL6R-L = 100). With B6 the relative binding activity was 87 relative (IL6R-BF648/IL6R-L = 100). In the case of B7, the relative binding activity is reported as 625 relative (IL6R-BF648/IL6R-L = 100). In the case of B8, the relative binding activity is reported as 288 relative (IL6R-BF648/IL6R-L = 100).

The binders below were run against T2, human FcγRIIb in the same assay as above.
Method: as §1
For B1, the relative binding activity was 136 relative (IL6R-BF648/IL6R-L = 100). B2 was tested, and the relative binding activity was 141 relative (IL6R-BF648/IL6R-L = 100). With B3 the relative binding activity was 100 relative (IL6R-BF648/IL6R-L = 100). With B4 the relative binding activity was 150 relative (IL6R-BF648/IL6R-L = 100). For B5, the relative binding activity was 115 relative (IL6R-BF648/IL6R-L = 100). For B6, the relative binding activity was 122 relative (IL6R-BF648/IL6R-L = 100). B7 was tested, and the relative binding activity was 58 relative (IL6R-BF648/IL6R-L = 100). For B8, the relative binding activity was 156 relative (IL6R-BF648/IL6R-L = 100).

These binders were tested against T4, human FcγRIIIa type V (human, UniProt P08637 17-208, limits assumed) in the same assay as above.
T4 construct: also called FcgRIIIaV; FcγRIIIa(V)
T4 sequence (P08637 other isoform, or with tags, fused parts or gaps limits assumed): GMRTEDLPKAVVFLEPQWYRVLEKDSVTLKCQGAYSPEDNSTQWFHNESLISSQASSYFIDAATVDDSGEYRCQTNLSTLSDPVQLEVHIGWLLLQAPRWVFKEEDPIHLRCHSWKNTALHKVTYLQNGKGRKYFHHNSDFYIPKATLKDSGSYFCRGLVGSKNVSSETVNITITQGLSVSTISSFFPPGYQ
Method: as §1
With B1 the relative binding activity was 87 relative (IL6R-BF648/IL6R-L = 100). With B2 the relative binding activity was 106 relative (IL6R-BF648/IL6R-L = 100). For B3, the relative binding activity was 100 relative (IL6R-BF648/IL6R-L = 100). B4 was tested, and the relative binding activity was 120 relative (IL6R-BF648/IL6R-L = 100). With B5 the relative binding activity was 87 relative (IL6R-BF648/IL6R-L = 100). With B6 the relative binding activity was 107 relative (IL6R-BF648/IL6R-L = 100). In the case of B7, the relative binding activity is reported as 3260 relative (IL6R-BF648/IL6R-L = 100). With B8 the relative binding activity was 126 relative (IL6R-BF648/IL6R-L = 100).

What follows are binders tested against T5, human FcγRIa (human, UniProt P12314 16-292, limits assumed) in the same assay as above.
T5 construct: also called FcgRIa; FcγRI (CD64)
T5 sequence (P12314 16-292 limits assumed): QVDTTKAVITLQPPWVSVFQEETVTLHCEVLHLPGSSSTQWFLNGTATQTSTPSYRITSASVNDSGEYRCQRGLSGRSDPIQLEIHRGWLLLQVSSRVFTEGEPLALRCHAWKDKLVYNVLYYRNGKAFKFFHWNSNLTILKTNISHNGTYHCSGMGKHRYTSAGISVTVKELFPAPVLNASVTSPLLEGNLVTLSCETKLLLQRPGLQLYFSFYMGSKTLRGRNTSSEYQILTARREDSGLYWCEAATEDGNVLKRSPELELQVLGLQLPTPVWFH
Method: as §1
In the case of B1, the relative binding activity is reported as 74 relative (IL6R-BF648/IL6R-L = 100). B2 was tested, and the relative binding activity was 109 relative (IL6R-BF648/IL6R-L = 100). For B3, the relative binding activity was 100 relative (IL6R-BF648/IL6R-L = 100). In the case of B5, the relative binding activity is reported as 100 relative (IL6R-BF648/IL6R-L = 100). For B6, the relative binding activity was 50 relative (IL6R-BF648/IL6R-L = 100). In the case of B7, the relative binding activity is reported as 145 relative (IL6R-BF648/IL6R-L = 100). For B8, the relative binding activity was 155 relative (IL6R-BF648/IL6R-L = 100).

The binders below were run against T3, human FcγRIIa type H in the same assay as above.
Method: as §1
In the case of B1, the relative binding activity is reported as 106 relative (IL6R-BF648/IL6R-L = 100). In the case of B2, the relative binding activity is reported as 162 relative (IL6R-BF648/IL6R-L = 100). B3 was tested, and the relative binding activity was 100 relative (IL6R-BF648/IL6R-L = 100). With B4 the relative binding activity was 130 relative (IL6R-BF648/IL6R-L = 100). In the case of B5, the relative binding activity is reported as 91 relative (IL6R-BF648/IL6R-L = 100). B6 was tested, and the relative binding activity was 91 relative (IL6R-BF648/IL6R-L = 100). B7 was tested, and the relative binding activity was 1600 relative (IL6R-BF648/IL6R-L = 100). In the case of B8, the relative binding activity is reported as 207 relative (IL6R-BF648/IL6R-L = 100).
